Reference: patent US7906310B2, “Proteases” (Novozymes A/S, priority 2003, dated 2011)

Tests used:
[1] = pNA assay dose/response curves with and without various inhibitors; assay type: biochemical; conditions: proteases included for comparative purposes
Protocol: (§1) pNA substrate: Suc-AAPF-pNA (Bachem L-1400) or Boc-VLGR-pNA (Bachem L-1205). Temperature: 25° C.
(§2) 20 ul (microliters) protease (diluted in 0.01% Triton X-100) was placed in a well of a micro titer plate. The assay was started by adding 200 ul pNA substrate (50 mg dissolved in 1.0 ml DMSO and further diluted 100× with assay buffer). The increase in OD405 was monitored as a measure of the protease activity.
Dose/response relationships (OD405/min versus (mg enzyme)/l) were determined using the pNA assay for a number of proteases, with and without the various inhibitors. The dose-response curves were linear over a satisfactory broad range of enzyme concentrations. Varying degrees of inhibition were observed: Some proteases included for comparative purposes, viz. porcine trypsin and the SAVINASE™ protease (a subtilisin protease derived from Bacillus clausii, commercially available from Novozymes A/S, Krogshoejvej 36, DK-2880 Bagsvaerd, Denmark) were not inhibited, while other proteases were. […] It was therefore concluded that the pNA assay was indeed suitable for inhibition measurements.
Cu^2+, however, inhibited all of the proteases tested (to a varying extent, as it appears from Table 1 below).

[2] = pNA assay: protease activity with 1 mM Cu2+ relative to control without Cu2+; assay type: biochemical; conditions: enzyme 1 mg/l, Suc-AAPF-pNA, pH 7, 25° C.; for Enzyme Activity, +1 mM Cu^2+: 1 mM Cu2+; for Relative Activity: activity with 1 mM Cu2+ relative to control without Cu2+; for Enzyme Activity, Control (no Cu^2+): no Cu2+
Protocol: (§3) Protease activity is measured using the substrate Suc-AAPF-pNA, in assay buffer at pH 7.0 and 25° C. For more details, please refer to the pNA assay described in Example 4, which also describes in detail the determination according to i) and ii).
Feature ii) is determined as the enzyme activity in the presence of 1 mM Cu^2+, relative to the activity of the same enzyme under the same conditions, except for the presence of Cu^2+. For the protease of the invention, this relative activity is at least 0.66 (=66%). For the purposes of feature ii), enzyme (protease) activity is measured as described above.
as §1, §2
First, the effect of various Cu^2+ concentrations was tested with an enzyme dosage of 1 mg/l. At least in the range of 0 to 1 mM Cu^2+ there seemed to be a linear relationship between inhibition and concentration of Cu^2+, the inhibition manifesting itself as a decrease in the enzyme activity with increasing concentrations of Cu^2+ (the enzyme activity being measured as average OD405 increase/time from the linear part of dose/response curves).

[3] = Stability assay: residual activity after incubation with 1 mM inhibitor, measured by pNA assay; assay type: physicochemical; set-up: key to Residual Enzyme Activity: fraction of activity at 0 h incubation (0.80 = 80%); conditions: 1 mM Cu2+, 25° C., pH 7, 0.1% K-sorbate, relative to 0 hours
Protocol: Feature i) is determined as residual (=rest, or remaining) enzyme activity after having incubated the enzyme for 164 hours, at pH 7 and 25° C., in assay buffer supplemented with 0.1% K-Sorbate (for preservation purposes), and in the presence of 1 mM Cu^2+. The residual activity is measured relative to the activity after 0 hours of incubation. For the protease of the invention, the residual activity is at least 0.80 (=80%).
as §3, §2
The protease was diluted to approx. 1 mg/ml (see below) in assay buffer with 0.1% (w/v) K-sorbate (potassium salt of sorbic acid) and 1 mM inhibitor. The mixture was incubated at 25° C.). At intervals, a sample was withdrawn from the incubation (after thorough mixing) and frozen. After dilution in assay buffer, residual activity was measured using the pNA assay. For the 1 mM inhibitor additions, the incubation was diluted in assay buffer with 5 mM EDTA in order to see a pure stability effect.
Protease concentrations were estimated from the theoretical molar extinction coefficients, E280 (1 M), which can be calculated from the amino acid composition using the formula: E280 (1 M)=5690*NTrp+1280*NTyr+120*NCys, where NTrp, NTyr, and NCys are the number of Trp, Tyr, and Cys amino acid residues in the protease (Gill, S. C., von Hippel, P. H., Analytical Biochemistry 182: 319-326 (1989)) and the molecular weight, Mw, of the protease calculated from the amino acid sequence. From an A280 measurement of a pure protease sample (more than 95% pure according to Example 2), the protease concentration was calculated as: Conc (mg/ml)=(A280*MW)/E280 (1 M)).
The stability of the various proteases in the presence of the various inhibitors in a concentration of 1 mM was tested as described above. The only inhibitor that had some effect on the stability of some of the proteases was Cu^2+. However, the effect of this inhibitor was not the same on all the proteases: See the results in Table 2 below showing that Protease 18 and the Brachysporiella proteases are indeed stable in the presence of 1 mM Cu^2+, while the other proteases are not.

Molecule	Inhibition by the various inhibitors (dose/response, pNA assay) [1]	Enzyme Activity, +1 mM Cu^2+ [2]	Relative Activity [2]	Enzyme Activity, Control (no Cu^2+) [2]	Residual Enzyme Activity ([3]; incubation time 0 hours)	Residual Enzyme Activity ([3]; incubation time 3.1 hours)	Residual Enzyme Activity ([3]; incubation time 18.6 hours)	Residual Enzyme Activity ([3]; incubation time 44.0 hours)	Residual Enzyme Activity ([3]; incubation time 116.0 hours)	Residual Enzyme Activity ([3]; incubation time 164.0 hours)	Residual Enzyme Activity ([3]; incubation time 188.6 hours)
porcine trypsin: protease included for comparative purposes (protein, UniProt P00761 9-231, looked up) Trypsin: IVGGYTCAANSIPYQVSLNSGSHFCGGSLINSQWVVSAAHCYKSRIQVRLGEHNIDVLEGNEQFINAAKIITHPNFNGNTLDNDIMLIKLSSPATLNSRVATVSLPRSCAAAGTECLISGWGNTKSSGSSYPSLLQCLKAPVLSDSSCKSSYPGQITGNMICVGFLEGGKDSCQGDSGGPVVCNGQLQGIVSWGYGCAQKNKPGVYTKVCNYVNWIQQTIAAN	not inhibited	–	–	–	–	–	–	–	–	–	–
Protease 35: protease from Nocardiopsis prasina DSM 15649, amino acids 1-188 of SEQ ID NO: 8 (protein, listed as Nocardiopsis prasina) ATGPLPQSPTPEADAVSMQEALQRDLGLTPLEADELLAAQDTAFEVDEAAAEAAGDAYGGSVFDTETLELTVLVTDSAAVEAVEATGAGTELVSYGITGLDEIVEELNAADAVPGVVGWYPDVAGDTVVLEVLEGSGADVGGLLADAGVDASAVEVTTTEQPELYADIIGGLAYTMGGRCSVGFAATN	–	75.0 mOD405/min	0.687	109.2 mOD405/min	1.000	0.960	0.918	0.852	0.807	0.745	0.733
Protease 10: known protease derived from Nocardiopsis sp. NRRL 18262, amino acids 1-188 of SEQ ID NO: 2 (protein) ADIIGGLAYTMGGRCSVGFAATNAAGQPGFVTAGHCGRVGTQVTIGNGRGVFEQSVFPGNDAAFVRGTSNFTLTNLVSRYNTGGYATVAGHNQAPIGSSVCRSGSTTGWHCGTIQARGQSVSYPEGTVTNMTRTTVCAEPGDSGGSYISGTQAQGVTSGGSGNCRTGGTTFYQEVTPMVNSWGVRLRT	–	80.3 mOD405/min	0.657	122.2 mOD405/min	1.000	0.952	0.868	0.874	0.837	0.752	0.723
Metarhizium protease: known protease derived from Metarhizium anisopliae, amino acids 1-188 of SEQ ID NO: 4 (protein, listed as Metarhizium anisopliae) MELTKFLALLAVILPVAYGAPTQAASLHPQILEAMKRDLGLNAEQATVRVAREIHATDVIEQLRSSVAFAGAWIDADVLYIGITDQALADEVTAAGATPIVMTNSLSKLEKAKEDLDKIFIGRANTLETSSDTSSGIASYFVDVAANKLVIEALADSHGHAEQLAAQVGLTSEFEVRTVETMPTTMAT	–	72.4 mOD405/min	0.612	118.2 mOD405/min	1.000	0.979	0.939	0.891	0.760	0.651	0.627
